From paper PMC4526632

Target: T1, recombinant mouse N-cadherin-Fc chimera (N-cadherin extracellular domain-Fc fusion protein) (mouse) (UniProt P15116)
T1 sequence: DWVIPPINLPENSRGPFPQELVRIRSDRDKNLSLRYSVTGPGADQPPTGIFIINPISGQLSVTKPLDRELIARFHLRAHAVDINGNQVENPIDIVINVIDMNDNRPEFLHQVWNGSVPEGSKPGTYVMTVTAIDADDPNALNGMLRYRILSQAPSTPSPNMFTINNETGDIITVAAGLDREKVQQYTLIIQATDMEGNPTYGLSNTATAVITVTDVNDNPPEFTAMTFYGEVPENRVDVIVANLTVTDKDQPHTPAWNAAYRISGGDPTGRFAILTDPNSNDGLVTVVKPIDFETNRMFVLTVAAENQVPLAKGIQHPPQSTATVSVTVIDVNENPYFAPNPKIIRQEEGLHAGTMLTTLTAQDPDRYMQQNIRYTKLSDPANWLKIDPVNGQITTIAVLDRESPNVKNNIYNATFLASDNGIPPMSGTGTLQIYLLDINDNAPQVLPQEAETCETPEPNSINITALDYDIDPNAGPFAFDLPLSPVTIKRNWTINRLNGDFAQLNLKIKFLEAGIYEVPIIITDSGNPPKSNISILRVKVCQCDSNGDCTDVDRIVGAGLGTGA

Nanog-GFP negative cells by flow cytometry after plating dissociated iPSC-derived neurospheres on N-cad-Fc for 48 h (30% of cells on gelatin expressed Nanog): > 97%
Substance: cell surface N-cadherin of ESC/iPSC-derived neural progenitor cells (from UniProt P15116 160-906) (natural protein)
